Patent US20190241669A1 (published 2019)
Numbering of substitutions follows the chain as printed. In names and notes the source's numbering stands.

B1: PC1C12-V1 BCMA specific CAR (protein)
chain: EVQLLESGGGLVQPGGSLRLSCAASGFTFSSYPMSWVRQAPGKGLEWVSAIGGSGGWSYYADSVKGRFTISRDNSKNTLYLQMNSLRAEDTAVYYCARYWPMDSWGQGTLVTVSSGGGGSGGGGSGGGGSEIVLTQSPGTLSLSPGERATLSCWLSQSVSSTYLAWYQQKPGQAPRLLIYDASSRAPGIPDRFSGSGSGTDFTLTISRLEPEDFAVYYCQQYSEWPLTFGQGTKVEIKGLAVSTISSFFPPGYQIYIWAPLAGTCGVLLLSLVITLYCKRGRKKLLYIFKQPFMRPVQTTQEEDGCSCRFPEEEEGGCELRVKFSRSADAPAYQQGQNQLYNELNLGRREEYDVLDKRRGRDPEMGGKPRRKNPQEGLYNELQKDKMAEAYSEIGMKGERRRGKGHDGLYQGLSTATKDTYDALHMQALPPR
B2: COM22-V1 BCMA specific CAR (protein)
chain: EVQLLESGGGLVQPGGSLRLSCAASGFTFSSYAMNWVRQAPGKGLEWVSAISDSGGSRWYADSVKGRFTISRDNSKNTLYLQMNSLRAEDTAVYYCTRYWPMDIWGQGTLVTVSSGGGGSGGGGSGGGGSEIVLTQSPGTLSLSPGERATLSCRASVRVSSTYLAWYQQKPGQAPRLLMYDASIRATGIPDRFSGSGSGTDFTLTISRLEPEDFAVYYCQQYMKWPLTFGQGTKVEIKGLAVSTISSFFPPGYQIYIWAPLAGTCGVLLLSLVITLYCKRGRKKLLYIFKQPFMRPVQTTQEEDGCSCRFPEEEEGGCELRVKFSRSADAPAYQQGQNQLYNELNLGRREEYDVLDKRRGRDPEMGGKPRRKNPQEGLYNELQKDKMAEAYSEIGMKGERRRGKGHDGLYQGLSTATKDTYDALHMQALPPR
B3: P5A-V1 BCMA specific CAR (protein)
chain: B2 chain with R58T, W59Y, T97A, V157Q, R158S, T162S, M223G, K224S
B4: P5AC1-V1 BCMA specific CAR (protein)
chain: EVQLLESGGGLVQPGGSLRLSCAASGFTFSSYAMNWVRQAPGKGLEWVSAILSSGGSTYYADSVKGRFTISRDNSKNTLYLQMNSLRAEDTAVYYCARYWPMDIWGQGTLVTVSSGGGGSGGGGSGGGGSEIVLTQSPGTLSLSPGERATLSCRGGQSVSSSYLAWYQQKPGQAPRLLMYDASIRATGIPDRFSGSGSGTDFTLTISRLEPEDFAVYYCQQYQSWPLTFGQGTKVEIKGLAVSTISSFFPPGYQIYIWAPLAGTCGVLLLSLVITLYCKRGRKKLLYIFKQPFMRPVQTTQEEDGCSCRFPEEEEGGCELRVKFSRSADAPAYQQGQNQLYNELNLGRREEYDVLDKRRGRDPEMGGKPRRKNPQEGLYNELQKDKMAEAYSEIGMKGERRRGKGHDGLYQGLSTATKDTYDALHMQALPPR
B5: L3.PY/L1.PH/H3.TAQ (antibody, V domains shown)
VH: EVQLLESGGGLVQPGGSLRLSCAASGFTFGSYAMTWVRQAPGKGLEWVSAISGSGGNTFYADSVKGRFTISRDNSKNTLYLQMNSLRAEDTAVYYCTRVSPIAAQMDYWGQGTLVTVSS
VL: EIVLTQSPGTLSLSPGERATLSCRASQSVSPHYLAWYQQKPGQAPRLLIYGASSRATGIPDRFSGSGSGTDFTLTISRLEPEDFAVYYCQHYPYPPSFTFGQGTKVEIK
notes: IgG
B6: L3.PY/L3.KF/H2.DY (antibody, V domains shown)
VH: B5 VH with S52D, G53Y, T97A, A104S, Q105G
VL: B5 VL with P31S, H32S, Q90K, H91F
notes: IgG
B7: L3.PY/L3.KF/H2.LT (antibody, V domains shown)
VH: B5 VH with G53L, S54T, T97A, A104S, Q105G
VL: B5 VL with P31S, H32S, Q90K, H91F
notes: IgG
B8: L3.PY/L3.KF/H2.QL (antibody, V domains shown)
VH: B5 VH with S63Q, V64L, T97A, A104S, Q105G
VL: B5 VL with P31S, H32S, Q90K, H91F
notes: IgG
B9: L3.PY/L3.KF/H2.YQ (antibody, V domains shown)
VH: B5 VH with G53Y, S54Q, T97A, A104S, Q105G
VL: B5 VL with P31S, H32S, Q90K, H91F
notes: IgG
B10: L3.PY/L3.KF/H3.AE (antibody, V domains shown)
VH: B5 VH with T97A, Q105E
VL: B5 VL with P31S, H32S, Q90K, H91F
notes: IgG
B11: L3.PY/L3.KF/H3.TAQ (antibody, V domains shown)
VH: B5 VH
VL: B5 VL with P31S, H32S, Q90K, H91F
notes: IgG
B12: L3.PY/L3.KF/H3.YA (antibody, V domains shown)
VH: B5 VH with T97A, A103Y, Q105G
VL: B5 VL with P31S, H32S, Q90K, H91F
notes: IgG

Assays:
[1] = biological target: human BCMA (B-cell maturation antigen) (human) (UniProt Q02223); experiment: cell-based or functional assay
Chain of human BCMA (B-cell maturation antigen) (human) (Q02223 other isoform, or with tags, fused parts or gaps): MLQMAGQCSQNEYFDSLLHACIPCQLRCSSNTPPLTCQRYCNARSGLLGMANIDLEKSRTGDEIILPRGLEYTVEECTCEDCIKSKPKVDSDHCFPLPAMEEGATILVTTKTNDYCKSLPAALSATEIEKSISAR

Human BCMA (human) = Human BCMA (human) (UniProt Q02223); experiment: SPR, IgG immobilised, huBCMA analyte, 37 C
cynomolgus monkey BCMA = biological target: T1, cynomolgus monkey BCMA (cynomolgus monkey, UniProt A0A2K5UD97 1-53); experiment: SPR, IgG on chip, cyBCMA analyte, 37C
T1 construct: Soluble analyte in SPR; construct not described; also called cyBCMA; Cyno BCMA
T1 sequence (A0A2K5UD97 entry or part of it): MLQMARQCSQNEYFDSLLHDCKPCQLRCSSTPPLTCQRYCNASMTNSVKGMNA

Binder	% CD107a+ (in CD8+) (degranulation, CAR-T cells with MM1S cells, Donor 3) [1]	MFI CD107a+ (degranulation, CAR-T cells with MM1S cells, Donor 3) [1]	% CD107a+ (in CD8+) (degranulation, CAR-T cells with MM1S cells, Donor 2) [1]	MFI CD107a+ (degranulation, CAR-T cells with MM1S cells, Donor 2) [1]	Kd (Human BCMA (human))	T½ (Human BCMA (human))	koff (Human BCMA (human))	kon (Human BCMA (human))	Kd (cynomolgus monkey BCMA)	T½ (cynomolgus monkey BCMA)	koff (cynomolgus monkey BCMA)	kon (cynomolgus monkey BCMA)
B1	68.2%	1960 MFI										
B2	76.1%	2220 MFI										
B3			77.6%	2670 MFI								
B4			68.6%	2190 MFI								
B5					0.59 nM	5.43 min	0.00213 s⁻¹	3.58e+06 M⁻¹ s⁻¹	1.28 nM	3.61 min	0.0032 s⁻¹	2.51e+06 M⁻¹ s⁻¹
B6					0.67 nM	6.35 min	0.00182 s⁻¹	2.74e+06 M⁻¹ s⁻¹	1.77 nM	3.14 min	0.00368 s⁻¹	2.08e+06 M⁻¹ s⁻¹
B7					0.69 nM	6.05 min	0.00191 s⁻¹	2.75e+06 M⁻¹ s⁻¹	2.16 nM	2.8 min	0.00413 s⁻¹	1.91e+06 M⁻¹ s⁻¹
B8					0.6 nM	9.26 min	0.00125 s⁻¹	2.07e+06 M⁻¹ s⁻¹	2.18 nM	3.73 min	0.0031 s⁻¹	1.42e+06 M⁻¹ s⁻¹
B9					1.14 nM	5.18 min	0.00223 s⁻¹	1.96e+06 M⁻¹ s⁻¹	3.55 nM	2.3 min	0.00501 s⁻¹	1.41e+06 M⁻¹ s⁻¹
B10					0.51 nM	7.44 min	0.00155 s⁻¹	3.07e+06 M⁻¹ s⁻¹	3.05 nM	2.05 min	0.00564 s⁻¹	1.85e+06 M⁻¹ s⁻¹
B11					0.58 nM	7.12 min	0.00162 s⁻¹	2.82e+06 M⁻¹ s⁻¹	0.95 nM	6.05 min	0.00191 s⁻¹	2.01e+06 M⁻¹ s⁻¹
B12					0.47 nM	7.85 min	0.00147 s⁻¹	3.12e+06 M⁻¹ s⁻¹	3.78 nM	1.45 min	0.00796 s⁻¹	2.1e+06 M⁻¹ s⁻¹
